Reference: US20050244864A1, “Development and use of fluorescent probes of unbound analytes” (priority 2004, published 2005)
Residue numbers refer to the chain shown, from its start. Names may count otherwise. Where two headings read alike, the source gives them in different places.

B1: L2P12 G9: acrylodan-labeled rI-FABP-L72A mutein: M18 L, G31 WT, F55 WT, A73 V (protein, UniProt P02693 2-132, looked up, variant M18L L72A A73V)
Fatty acid-binding protein, …: AFDGTWKVDRNENYEKFLEKMGINVVKRKLGAHDNLKLTITQEGNKFTVKESSNFRNIDVVFELGVDFAYSAVDGTELTGTWTMEGNKLVGKFKRVDNGKELIAVREISGNELIQTYTYEGVEAKRIFKKE
modifications: acrylodan label
notes: acrylodan-labeled rI-FABP-L72A mutein: M18 L, G31 WT, F55 WT, A73 V
B2: L2P21 C1: acrylodan-labeled rI-FABP-L72A mutein: M18 I, G31 Y, F55 WT, A73 V (protein, UniProt P02693 2-132, looked up, variant M18I G31Y L72A A73V)
Fatty acid-binding protein, …: B1 Fatty acid-binding protein, … with L18I, G31Y
modifications: acrylodan label
notes: acrylodan-labeled rI-FABP-L72A mutein: M18 I, G31 Y, F55 WT, A73 V
B3: L5P16 H4: UCB-responsive probe from rI-FABP-L72A; mutations 126K 73F 72A (protein, UniProt P02693 2-132, looked up, variant L72A A73F R126K)
Fatty acid-binding protein, …: B1 Fatty acid-binding protein, … with L18M, V73F, R126K
modifications: acrylodan label
notes: UCB-responsive probe from rI-FABP-L72A; mutations 126K 73F 72A
B4: L2P22 B1: UCB-responsive probe from rI-FABP-L72A; mutations 18Y 31V 55V 72A (protein, UniProt P02693 2-132, looked up, variant M18Y G31V F55V L72A)
Fatty acid-binding protein, …: B1 Fatty acid-binding protein, … with L18Y, G31V, F55V, V73A
B5: L2P14F7: UCB probe from rI-FABP-L72A; mutations 18G 31 M 72A (protein, UniProt P02693 2-132, looked up, variant M18G G31M L72A)
Fatty acid-binding protein, …: B1 Fatty acid-binding protein, … with L18G, G31M, V73A
modifications: fluorescent label
notes: UCB probe from rI-FABP-L72A; mutations 18G 31 M 72A
B6: L2P4C5: acrylodan-labeled rI-FABP-L72A mutein: M18 I, G31 Y, F55 WT, A73 WT (protein, UniProt P02693 2-132, looked up, variant M18I G31Y L72A)
Fatty acid-binding protein, …: B1 Fatty acid-binding protein, … with L18I, G31Y, V73A
modifications: acrylodan label

Assays:
[1] = Probe fluorescence ratio response to arachidonate:BSA complex, relative to ADIFAB2 (ΔR/ΔRAD2); assay type: binding; conditions: fluorescence response (R-Ro) relative to ADIFAB2, arachidonate
Summary of the method: (§1)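 Fatty acids presented as BSA complexes (6 μM BSA in HEPES) set to ΔR ≈0.4 with ADIFAB2, i.e. unbound FFA 100-1000 nM. Background-subtracted ratio from excitation 375 nm, emission 550/457 nm; ΔR versus fatty-acid-free BSA, divided by the ADIFAB2 ΔR.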

[2] = Probe fluorescence ratio response to linolenate:BSA complex, relative to ADIFAB2 (ΔR/ΔRAD2); assay type: binding; conditions: fluorescence response (R-Ro) relative to ADIFAB2, linolenate
Summary of the method: as §1

[3] = Probe fluorescence ratio response to linoleate:BSA complex, relative to ADIFAB2 (ΔR/ΔRAD2); assay type: binding; conditions: fluorescence response (R-Ro) relative to ADIFAB2, linoleate
Summary of the method: as §1

[4] = Probe fluorescence ratio response to oleate:BSA complex, relative to ADIFAB2 (ΔR/ΔRAD2); assay type: binding; conditions: fluorescence response (R-Ro) relative to ADIFAB2, oleate
Summary of the method: as §1

[5] = Probe fluorescence ratio response to palmitate:BSA complex, relative to ADIFAB2 (ΔR/ΔRAD2); assay type: binding; conditions: fluorescence response (R-Ro) relative to ADIFAB2, palmitate
Summary of the method: as §1

[6] = Probe fluorescence ratio response to palmitoleate:BSA complex, relative to ADIFAB2 (ΔR/ΔRAD2); assay type: binding
[7] = Probe fluorescence ratio response to stearate:BSA complex, relative to ADIFAB2 (ΔR/ΔRAD2); assay type: binding
[8] = Mutant probe screening: baseline fluorescence ratio Ro and fatty acid response phenotype; assay type: binding; conditions: 7 FFA: AA, LNA, LA, OA, PA, POA, SA
Description: The intensity ratio (“R” value) for a given probe is determined. The ratio is calculated using the following formula: R=Fλ1/Fλ2 wherein, Fλ1, is the measured fluorescence intensities (intensity of sample with probe present minus intensity of sample without probe present) at wavelength 1 and Fλ2 is the measured fluorescence intensities (intensity of sample with probe present minus intensity of sample without probe present) at wavelength 2. Then, for a given probe, ΔR, the difference in R value between the measurement in the presence of the analyte and in the absence of the analyte, is calculated as follows: ΔR=R+analyte−R0 The ΔR value for a given probe is then compared to a reference probe, for example, ADIFAB or ADIFAB2, by ΔR/ΔRreference. […] Measurements of fluorescence intensities are obtained using standard techniques.
Plates were prepared and read in two stages. […] The background fluorescence was then measured at the same wavelengths as used for ADIFAB2 using a Fluorolog-3 spectrofluorometer with an external Micromax 384 fluorescence plate reader (Jobin Yvon). In the second stage, 30 μL aliquots of the mutant probes were added to multiple wells of the plate, one for each fatty acid and one with fatty acid free BSA only, and the fluorescence intensity at each wavelength was again measured on the plate reader. […]

[9] = Screening of FFA-insensitive probes for response to UCB:BSA complexes (ΔI/Io); assay type: binding; conditions: fractional change in fluorescence intensity; for ΔI/Io 1:1 UCB:BSA 440 nm / ΔI/Io 1:1 UCB:BSA 500 nm: UCB:BSA 1:1; for ΔI/Io 1:1 UCB:BSA 440 nm / ΔI/Io 1:2 UCB:BSA 440 nm: emission 440 nm; for ΔI/Io 1:1 UCB:BSA 500 nm / ΔI/Io 1:2 UCB:BSA 500 nm: emission 500 nm; for ΔI/Io 1:2 UCB:BSA 440 nm / ΔI/Io 1:2 UCB:BSA 500 nm: UCB:BSA 1:2
Description: A probe for unbound unconjugated bilirubin (UCBu) was developed and used to measure concentrations of UCBu in plasma spiked with a defined quantity of unconjugated bilirubin (UCB). Using 384-well plates, 335 mutant probes that were insensitive to FFA were screened for their response to UCB:BSA complexes at UCB:BSA ratios of 1:1 and 1:2 in aqueous buffer. All probes were prepared from rI-FABP-L72A with 1 to 5 mutations. Screening was conducted by comparing the fractional change in fluorescence intensity (ΔI/Io, where ΔI is the difference in probe intensity in the presence and absence of UCB and Io is the intensity in the absence of UCB) for the probes with that for ADIFAB2. This value was calculated for two emission wavelengths: 440 and 500 nm. […] The emitted fluorescence of these probes is quenched by binding of UCB.

[10] = Binding isotherm: probe titrated with UCB, Kd
Description: (§2) Larger preparations of select probes were prepared for quantitative determination of binding affinities. Binding isothermns were performed by measuring the fluorescence intensity for 1 μM of a given probe as the probe was titrated with known quantities of UCB. […] Table 3 lists the Kd values and mutations for some example probes. […] This property was confirmed by titration of a mixture of 0.5 μM UCB and 1 μM L2P14F7 with sodium oleate. […] Oleic acid is the most abundant FFA in serum, and measurements of normal serum samples indicate that typical unbound concentrations of oleic acid are less than 1 nM. By using non-responsive probes from FFA screening to conduct a secondary screening with other unbound analytes, a UCB-sensitive probe that has a negligible response to the major FFA in blood has been generated from a rI-FABP-L72A mutant.

[11] = Titration of UCB and probe mixture with sodium oleate; assay type: binding; conditions: mixture of 0.5 μM UCB and 1 μM probe; after 1 μM total oleate added (FIG. 4)
Description: as §2

[12] = Probe response to plasma samples from healthy adult donors, with and without 5 μM UCB
Description: The response of L2P14F7 to plasma samples from healthy adult donors, for which the UCBu concentration is expected to be about 1 nM or less, was measured (FIG. 5). Samples were diluted to 1% by volume in pH 7.4 HEPES buffer.

[13] = fluorescence response (R-Ro) relative to ADIFAB2
[14] = fluorescence response (R-Ro) relative to ADIFAB2, listed as L2P12G9
[15] = fluorescence response (R-Ro) relative to ADIFAB2, listed as L2P21C1
[16] = UCB, at 22° C., read-out: Kd (nM) at 22° C.

Row | Molecule | ΔR/ΔRAD2 AA [1] | ΔR/ΔRAD2 LNA [2] | ΔR/ΔRAD2 LA [3] | ΔR/ΔRAD2 OA [4] | ΔR/ΔRAD2 PA [5] | ΔR/ΔRAD2 POA [6, 13] | ΔR/ΔRAD2 SA [7, 13] | phenotype (fatty acid response) relative to ADIFAB2 [8] | ΔI/Io 1:1 UCB:BSA 440 nm [9] | ΔI/Io 1:1 UCB:BSA 500 nm [9] | ΔI/Io 1:2 UCB:BSA 440 nm [9] | ΔI/Io 1:2 UCB:BSA 500 nm [9] | Kd [10, 16] | further results
1 | B1 | 0.54 | 0.01 | −0.07 | 0.07 | 0.03 | −0.01 | 0.48 | response only for AA and SA | – | – | – | – | – | ΔR/ΔRAD2 AA ([1]; listed as L2P12G9): 0.5; ΔR/ΔRAD2 LNA ([2]; listed as L2P12G9): 0.0; ΔR/ΔRAD2 LA ([3]; listed as L2P12G9): −0.1; ΔR/ΔRAD2 OA ([4]; listed as L2P12G9): 0.0; ΔR/ΔRAD2 PA ([5]; listed as L2P12G9): 0.0; ΔR/ΔRAD2 POA [6, 14]: 0.0; ΔR/ΔRAD2 SA [7, 14]: 0.4
2 | B2 | 3.27 | 3.73 | 4.04 | 3.20 | 2.54 | 3.52 | 2.02 | greater response for all 7 FFA | – | – | – | – | – | ΔR/ΔRAD2 AA ([1]; listed as L2P21C1): 2.8; ΔR/ΔRAD2 LNA ([2]; listed as L2P21C1): 3.1; ΔR/ΔRAD2 LA ([3]; listed as L2P21C1): 3.4; ΔR/ΔRAD2 OA ([4]; listed as L2P21C1): 2.7; ΔR/ΔRAD2 PA ([5]; listed as L2P21C1): 2.0; ΔR/ΔRAD2 POA [6, 15]: 2.9; ΔR/ΔRAD2 SA [7, 15]: 1.6
3 | B3 | – | – | – | – | – | – | – | – | −0.69 | −0.64 | −0.37 | −0.31 | 390 nM | –
4 | B4 | – | – | – | – | – | – | – | – | −0.70 | −0.68 | −0.36 | −0.35 | 550 nM | –
5 | B5 | – | – | – | – | – | – | – | – | – | – | – | – | – | Kd ([10]; non-linear fit to binding isotherm, 1 μM probe titrated with UCB (FIG. 3), read-out: Kd): 150 nM; response on titration with sodium oleate [11]: no change in response; response to plasma samples ([12]; healthy adult donors, samples diluted to 1% by volume in pH 7.4 HEPES buffer): Little to no response; probe fluorescence after spiking plasma samples with UCB ([12]; samples A and B spiked with 5 μM UCB): substantial decrease in the fluorescence
6 | B6 | 2.2 | 2.8 | 2.8 | 2.1 | 1.8 | 2.6 | 1.0 | – | – | – | – | – | – | –
